This assay concerns leukocytes. Nature of the assay: Exogenous administration of Dkk-1 protein to mice. The class given is in vivo, C57BL/6 mice. Here is the method:
FIG. 11, comprising FIG. 11A through FIG. 11J, depicts results of experiments showing Dkk-1 facilitates leukocyte migration and regulates leukocyte-platelet aggregate formation in type 2 inflammation. FIG. 11A depicts flow cytometry analysis of CD45^+ cells in lung homogenates from nine-week old Dkk-1^d/d mice and wildtype littermate controls (n=5-6/group) 72 hours after challenge with 30 μg HDM allergen extract. FIG. 11B depicts analysis of percentages of CD45^+CD41^+ cells in peripheral blood from nine-week old Dkk-1^d/d mice and wildtype littermate controls collected at 4 hours and 24 hours after allergen challenge. FIG. 11C depicts flow cytometry analysis of CD45+ cells after Dkk-1 protein (300 ng/mouse) was injected intraperitoneally. […]
FIG. 12, comprising FIG. 12A through FIG. 12G, depicts results of experiments showing regulation of LPA formation by Dkk-1. […] B-cell and CD4 T cell among CD45^+CD41^+ cells were monitored at the indicated time points in Dkk-1^d/d mice and their wildtype littermate controls challenged with 30 μg HDM extract/mouse. […] Mean fluorescence intensity was normalized to unchallenged C57BL/6 mice. […] Normalized MFI for ICAM-1 expression and the percentages of LFA-1 high cells were measured by flow cytometry following injection of 300 ng of Dkk-1 intraperitoneally. […]

B1: Dkk-1: Wnt antagonist Dickkopf-1 protein, expressed in CHO cells, added to cells or injected into mice (protein, UniProt O94907 32-266, looked up)
Dickkopf-related protein 1: TLNSVLNSNAIKNLPPPLGGAAGHPGSAVSAAPGILYPGGNKYQTIDNYQPYPCAEDEECGTDEYCASPTRGGDAGVQICLACRKRRKRCMRHAMCCPGNYCKNGICVSSDQNHFRGEIEETITESFGNDHSTLDGYSRRTTLSSKMYHTKGQEGSVCLRSSDCASGLCCARHFWSKICKPVLKEGQVCTKHRRKGSHGLEIFQRCYCGEGLSCRIQKDHHQASNSSRLHTCQRH
On to B1, for which the LPA formation entry (300 ng of Dkk-1, without allergen or parasite challenge) was “increased”. The “number of infiltrated leukocytes in the lung” value (300 ng/mouse intraperitoneally, 72 hours after administration) was “did not increase”.

For the origin of these results see US11135223B2, “Compositions and methods for inhibiting Dkk-1” (YALE UNIVERSITY, priority 2016, dated 2021).
